Assay results reported in patent publication US20230374088A1 (GENERAL HOSPITAL, published 2023).
Substitutions are numbered along the chain they refer to. Names may count otherwise. Each block holds one binder with its values, some of them ahead of it.

What was measured:
c-Myc-Gli2 (595-1568aa) = biological target: T1, c-Myc-Gli2 (595-1568aa) (human, UniProt P10070 595-1568); assay: pull-down on anti-FLAG beads, anti-c-myc blot, Expi293F cells
T1 construct: the end of the construct is meant as the C-terminus of the protein; also called C-terminal half of Gli2; not shown: c-myc tag from pCMV-BICEP-4 (MCS2), N-terminal by the name
T1 sequence (looked up): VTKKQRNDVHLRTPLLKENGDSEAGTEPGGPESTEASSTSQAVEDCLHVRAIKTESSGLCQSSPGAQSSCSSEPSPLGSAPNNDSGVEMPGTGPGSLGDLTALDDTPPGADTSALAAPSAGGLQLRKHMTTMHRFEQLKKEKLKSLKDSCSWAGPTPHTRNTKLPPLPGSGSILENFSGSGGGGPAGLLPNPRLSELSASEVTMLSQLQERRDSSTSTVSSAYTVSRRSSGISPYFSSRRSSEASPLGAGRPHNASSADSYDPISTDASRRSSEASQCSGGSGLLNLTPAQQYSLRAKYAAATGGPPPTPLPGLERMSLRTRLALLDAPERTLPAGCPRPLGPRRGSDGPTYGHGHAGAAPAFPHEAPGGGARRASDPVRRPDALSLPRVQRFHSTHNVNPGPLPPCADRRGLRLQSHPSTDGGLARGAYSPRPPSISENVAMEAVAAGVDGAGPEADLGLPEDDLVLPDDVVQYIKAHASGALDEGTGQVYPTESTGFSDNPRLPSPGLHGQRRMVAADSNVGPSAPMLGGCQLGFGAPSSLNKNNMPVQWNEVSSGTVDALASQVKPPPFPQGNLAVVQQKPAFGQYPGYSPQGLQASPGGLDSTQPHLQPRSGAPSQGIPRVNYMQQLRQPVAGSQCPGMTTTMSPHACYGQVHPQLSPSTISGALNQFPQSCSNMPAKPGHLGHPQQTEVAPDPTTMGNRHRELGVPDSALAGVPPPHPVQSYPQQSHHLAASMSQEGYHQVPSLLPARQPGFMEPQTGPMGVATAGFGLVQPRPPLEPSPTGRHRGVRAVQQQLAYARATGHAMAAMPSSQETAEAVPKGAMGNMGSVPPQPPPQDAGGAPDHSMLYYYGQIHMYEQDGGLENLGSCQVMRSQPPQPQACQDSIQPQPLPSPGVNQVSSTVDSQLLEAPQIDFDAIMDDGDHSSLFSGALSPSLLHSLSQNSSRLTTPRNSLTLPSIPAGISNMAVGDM
Text: (§1) Immunoprecipitation (IP) using anti-FLAG magnetic beads. Input (cell lysate), FT (flow through), wash and beads samples were immunoblotted (IB) with anti c-Myc antibody to detect Gli2. […] The blots are representative images of a minimum of three repeats. Gli2-ZF mutants are as follows: ZF2-mut (H493A, R496A), ZF3-mut (H503A, R516A, K521A), ZF4-mut (R550A, K552A, R556A). Kif7-CC mutants are as follows: S1-mut (E500A, E501A, E502A, D505A), S2-mut (E511A, E515A), S3-mut1 (E526A, E529A) and S3-mut2 (E530A, R535A).
(§2) To narrow down the residues that participate in binding, we analyzed the model of the Kif7-SCC:Gli2-ZF complex using PDBsum server (De Beer et al., Nucleic acids research, 42, D292-D296, 2014). We performed alanine scanning mutagenesis of the charged residues on Gli2-ZF that came up as part of the binding interface in the PDBsum analysis and analyzed their binding with pull-down assay (FIG. 3D). […] We systematically mutated the residues to alanine and performed the pull-down assay with Gli2-ZF.

Kif7-DM (1-543aa) = biological target: T2, Kif7-DM (1-543aa) (human, UniProt Q2M1P5 1-543); assay: cryo-EM of microtubule-bound Kif7-DM with AMP-PNP, 3.9 Å
T2 construct: As used for cryo-EM, without GFP; Expressed with a TEV-cleavable N-terminal 6xHis-SUMOstar tag; also called Kif7 dimer; dimeric Kif7
T2 sequence: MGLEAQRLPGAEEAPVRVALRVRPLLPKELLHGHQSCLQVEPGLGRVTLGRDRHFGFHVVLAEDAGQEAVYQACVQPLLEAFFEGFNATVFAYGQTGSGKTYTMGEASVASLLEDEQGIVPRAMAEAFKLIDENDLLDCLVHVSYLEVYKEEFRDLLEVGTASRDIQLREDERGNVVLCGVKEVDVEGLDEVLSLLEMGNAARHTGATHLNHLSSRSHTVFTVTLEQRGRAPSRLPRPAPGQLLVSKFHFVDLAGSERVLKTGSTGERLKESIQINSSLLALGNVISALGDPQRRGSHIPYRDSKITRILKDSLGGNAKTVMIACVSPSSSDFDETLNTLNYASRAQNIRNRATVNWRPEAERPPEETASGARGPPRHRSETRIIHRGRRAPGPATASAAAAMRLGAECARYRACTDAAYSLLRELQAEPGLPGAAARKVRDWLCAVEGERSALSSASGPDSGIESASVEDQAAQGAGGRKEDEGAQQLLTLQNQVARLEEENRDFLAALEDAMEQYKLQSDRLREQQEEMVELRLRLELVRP
Protocol: For grid preparation, all Kif7-GIi2 preparations were diluted using BRB80 (80 mM 1,4-piperazinediethanesulfonic acid [PIPES], pH 6.8, 1 mM MgCl₂, 1 mM ethylene glycol tetraacetic acid [EGTA]). Porcine brain microtubules were prepared from frozen aliquots of 5 mg/ml tubulin (Cytoskeleton, Denver, CO) in polymerization buffer (BRB80; 80 mM PIPES, pH 6.8, 1 mM EGTA, 2 mM MgCl₂, 3 mM GMP-CPP, 10% dimethyl sulfoxide (DMSO)) at 37° C. for 2-3 hours. The polymerized microtubules were then incubated at room temperature for several hours or overnight before use. The following day or several hours later the microtubules were spun down on a bench top centrifuge 14.00 RPM 10 min to pellet. The pellet was resuspended in polymerization buffer without DMSO. The Kif7 dimer and monomer preparations were made by mixing the Kif7 with the GIi2 or GIi2-SNAP for 1 hour prior to incubation with the microtubules. Kif7-dimer (0.36 mg/ml) plus GIi2 (0.2 mg/ml) in BRB plus 2 mM ADP, 2 mM MgcI2, Kif7-monomer (0.45 mg/mL) or Kif7 dimer plus GIi2_SNAP (0.30 mg/mL) plus BRB80 with 1 mM AMPPNP and 1 mM MgCl₂. All microtubule samples were prepared on 1.2/1.3 400-mesh grids (Electron Microscopy Services) Grids were glow-discharged before sample application. The cryo-samples were prepared using a manual plunger, which was placed in a homemade humidity chamber that varied between 80 and 90% relative humidity. […]

Kif27-DM-GFP (1-580aa) = biological target: T3, Kif27-DM-GFP (1-580aa) (human, UniProt Q86VH2 1-580); assay: TIRF microscopy on microtubules; 100 nM Gli2-ZF-SNAP-Alexa647 with 100 nM kinesin
T3 construct: range 1-580; Called dimeric; not shown: GFP tag, C-terminal by the name
T3 sequence (looked up): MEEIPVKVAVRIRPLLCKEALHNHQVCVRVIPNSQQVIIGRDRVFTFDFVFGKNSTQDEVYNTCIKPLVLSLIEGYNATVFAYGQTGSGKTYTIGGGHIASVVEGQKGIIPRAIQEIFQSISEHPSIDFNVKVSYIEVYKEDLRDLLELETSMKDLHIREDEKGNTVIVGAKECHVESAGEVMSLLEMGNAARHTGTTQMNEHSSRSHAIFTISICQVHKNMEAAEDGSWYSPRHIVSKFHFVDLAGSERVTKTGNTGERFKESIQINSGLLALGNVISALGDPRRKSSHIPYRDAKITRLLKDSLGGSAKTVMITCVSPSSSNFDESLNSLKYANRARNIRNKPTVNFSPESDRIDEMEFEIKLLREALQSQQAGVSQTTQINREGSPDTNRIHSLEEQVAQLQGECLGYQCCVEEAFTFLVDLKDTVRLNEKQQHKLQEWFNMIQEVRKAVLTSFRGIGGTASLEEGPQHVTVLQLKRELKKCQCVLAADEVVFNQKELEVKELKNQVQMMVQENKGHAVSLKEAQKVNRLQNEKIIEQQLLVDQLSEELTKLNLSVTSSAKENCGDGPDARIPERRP

[1] = biological target: T4, c-Myc-Gli2 (418-594aa) ZF2-mut (H493A, R496A) (human, UniProt P10070 418-594); assay: pull-down on anti-FLAG beads, anti-c-myc blot, Expi293F cells
T4 construct: also called Gli2 ZF-2 (H493A/R496A); not shown: c-myc tag from pCMV-BICEP-4 (MCS2)
T4 sequence (looked up): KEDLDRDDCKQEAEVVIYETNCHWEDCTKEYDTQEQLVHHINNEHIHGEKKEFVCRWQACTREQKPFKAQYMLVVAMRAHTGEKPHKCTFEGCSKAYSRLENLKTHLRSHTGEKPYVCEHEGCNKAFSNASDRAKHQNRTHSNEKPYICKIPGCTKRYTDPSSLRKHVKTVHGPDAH
Text: as §1, §2

[2] = biological target: T5, c-Myc-Gli2 (418-594aa) ZF3-mut (H503A, R516A, K521A) (human, UniProt P10070 418-594); assay: as above
T5 construct: also called ZF-3 (H503A/R516A/K521A); not shown: c-myc tag from pCMV-BICEP-4 (MCS2)
T5 sequence (looked up): T4 sequence (looked up) with A76H, A79R, H86A, R99A, K104A
Text: as §1, §2

c-Myc-Gli2 (418-594aa) = biological target: T6, c-Myc-Gli2 (418-594aa) (human, UniProt P10070 418-594); assay: as above
T6 construct: Expressed in Expi293F cells for the pull-down; also called Gli2-ZF (in the pull-down); not shown: c-myc tag from pCMV-BICEP-4 (MCS2), N-terminal by the name
T6 sequence (looked up): T4 sequence (looked up) with A76H, A79R
Text: as §1, §2

B1: FLAG-Kif7 (1-543aa) (other)
chain: T2 sequence
notes: Expressed in Expi293F cells for the pull-down; also called N-terminal half of Kif7; Kif7-DM; not shown: FLAG tag from pCMV-BICEP-4 (MCS1), N-terminal by the name
binding result (c-Myc-Gli2 (595-1568aa)): no binding

B3: FLAG-Kif7-CC (460-600aa) (other)
chain: PDSGIESASVEDQAAQGAGGRKEDEGAQQLLTLQNQVARLEEENRDFLAALEDAMEQYKLQSDRLREQQEEMVELRLRLELVRPGWGGPRLLNGLPPGSFVPRPHTAPLGGAHAHVLGMVPPACLPGDEVGSEQRGEQVTN
notes: Expressed in Expi293F cells for the pull-down; also called Kif7(460-600aa); not shown: FLAG tag from pCMV-BICEP-4 (MCS1), N-terminal by the name
binding result [1]: no binding
binding result [2]: no binding

Further lines, results first:

binding result (Kif7-DM (1-543aa)): binds
binding result (Kif27-DM-GFP (1-580aa)): no binding
B2: Gli2-ZF-SNAP (other, human, UniProt P10070 418-604, looked up)
chain: KEDLDRDDCKQEAEVVIYETNCHWEDCTKEYDTQEQLVHHINNEHIHGEKKEFVCRWQACTREQKPFKAQYMLVVHMRRHTGEKPHKCTFEGCSKAYSRLENLKTHLRSHTGEKPYVCEHEGCNKAFSNASDRAKHQNRTHSNEKPYICKIPGCTKRYTDPSSLRKHVKTVHGPDAHVTKKQRNDVH
modifications: Alexa 647 dye on the SNAP tag in the TIRF assays
notes: Labeled with Alexa 647 for TIRF microscopy; used unlabeled (as far as told) for cryo-EM; also called Gli2-ZF-SNAP-Alexa 647; Gli2-ZF-Alexa 647; not shown: C-terminal SNAP tag

binding result (c-Myc-Gli2 (418-594aa)): no binding
B4: FLAG-Kif7-CC (460-600aa) S1-mut (E500A, E501A, E502A, D505A) (other)
chain: B3 chain with E41A, E42A, E43A, D46A
notes: also called Kif7-CC S1; not shown: FLAG tag from pCMV-BICEP-4 (MCS1)
